Test results as given in patent publication US20240262917A1, “ANTIBODIES AGAINST ALK AND METHODS OF USE THEREOF” (Dana-Farber Cancer Institute, Inc., priority 2021, published 2024).

Key:
[1] = tested on: ALK; assay: Western blot analysis of ALK in cell lysates and conditioned media; type: binding, human
From the text: (§1) (A) Western blot analysis of ALK in Kelly and SHEP neuroblastoma cells overexpressing GFP and mutated ALK using the mAb-7 and 8G7 anti-ALK antibodies. The mAb-7 antibody was developed at the Vigny laboratory (INSERM, Unité 706/Université Pierre et Marie Curie, Paris F-75005, France) (Moog-Lutz et al, 2005; PMID: 15886198) and obtained through a Materials Transfer Agreement. (B) Western blot analysis of ALK expression in various non-neuroblastoma cell lines: H1373 (human […]), HeLa (cervical cancer), NIH-3T3 (transformed mouse fibroblast cells) using 8G7 and C26G7 (rabbit monoclonal C-terminal anti-ALK antibody; Cell Signaling Technology; Cat #3333; RRID:AB_836862) anti-ALK antibodies.
(§2) The three HPLC-purified monoclonal antibodies (5H3, 7F7 and 8G7) all of the IgG1 subtype, were tested for their ability to bind to ALK in neuroblastoma cells expressing ALK. Both cell lysates and supernatants from cells grown with and without serum (to increase the expression of ALK) were tested by western blotting. […] (A) Western blot analysis of the indicated hybridoma clones in neuroblastoma cell lines expressing WT (NGP) and mutated (SHSY5Y, Kelly) ALK. NIH3T3 cells were used as controls. (B) Western blot analysis of conditioned media from NGP neuroblastoma and 293T cells engineered to express the WT ALK receptor, with the three ALK mAbs showing binding with the shed ALK extracellular domain. […]
Cell lysates were prepared in NP-40 buffer (Invitrogen) containing complete protease inhibitor (Roche), phosphatase inhibitor (Roche) and phenylmethylsulfonyl fluoride (PMSF). Lysates were incubated on ice for 20 min and centrifuged at 16,000 g for 15 min at 4° C. Protein concentrations of the supernatants were determined with the DC protein assay kit (Bio-Rad). Protein samples were denatured using NuPAGE LDS sample buffer (Invitrogen) and NuPAGE sample reducing agent (Invitrogen). Proteins were then separated on precast 4-12% Bis-Tris gels (Invitrogen) and transferred to nitrocellulose membranes (Bio-Rad). […]

[2] = target: T1, full-length ALK receptor (Homo sapiens, UniProt Q9UM73); assay: Immunoprecipitation of ALK from neuroblastoma cell lysates; type: binding; conditions: immunoblotting with commercial anti-ALK C-terminal antibody
T1 construct: endogenous in cells
From the text: Cell lysates from the indicated neuroblastoma cell lines were subjected to immunoprecipitation (IP) using 8G7 and subsequently to immunoblotting analysis using the commercial anti-ALK C-terminal antibody.

[3] = target: T2, ALK extracellular fragment (Homo sapiens, UniProt Q9UM73); assay: Sandwich ELISA of shed ALK ECD in patient sera; type: binding; conditions: sera of patients with ALK-expressing neuroblastoma
T2 construct: conditioned media containing the shed ALK (ALK 1-654) ECD fragment; from tissue; host or cells: serum of neuroblastoma patients
From the text: Detection of the purified ALK-ECD protein using 8G7 (detection) and 7F7 (capture) anti-ALK antibodies by sandwich ELISA. (A) Standard curve showing the gradual increase in signal with increasing concentrations of the ALK-ECD protein in the media of NGP cells that express cleaved ALK. Quantification is shown below. (B) ELISA of the shed ALK ECD protein in sera from patients with neuroblastoma. Ample diluent buffer was used to dilute the serum samples, Media represents Dulbecco's Modified Eagle media in which human embryonic kidney 293T cells were grown, 293T media, conditioned media from 293T cells; ALK ECD 293T media, media collected from 293T cells in which the ALK-ECD-mFc protein was overexpressed.
We developed a sandwich ELISA technique where two ALK antibodies (for example, 5H3 or 7F7) can be used to capture the ALK extracellular fragment (antigen), and another antibody, such as the 8G7 antibody, can be used to detect the captured ALK extracellular fragment-5H3 or 7F7 complex. The different epitope binding sites of these antibodies on the ALK extracellular fragment protein allow for the development of the sandwich ELISA technique for the detection of the cleaved or shed ALK extracellular fragment in patient serum samples (FIG. 18). […]

[4] = target: T3, ALK (Homo sapiens, UniProt Q9UM73); assay: Western blot analysis of ALK in cell lysates and conditioned media; type: binding; design: endogenous in cells; host or cells: human neuroblastoma lines (NGP, SH-SY5Y, Kelly and others)
From the text: as §1, §2
Cell lysates were prepared in NP-40 buffer (Invitrogen) containing complete protease inhibitor (Roche), phosphatase inhibitor (Roche) and phenylmethylsulfonyl fluoride (PMSF). Lysates were incubated on ice for 20 min and centrifuged at 16,000 g for 15 min at 4° C. Protein concentrations of the supernatants were determined with the DC protein assay kit (Bio-Rad). Protein samples were denatured using NuPAGE LDS sample buffer (Invitrogen) and NuPAGE sample reducing agent (Invitrogen). Proteins were then separated on precast 4-12% Bis-Tris gels (Invitrogen) and transferred to nitrocellulose membranes (Bio-Rad). After blocking in blocking buffer (5% dry milk in TBS with 0.2% Tween-20), membranes were incubated with the primary antibody overnight at 4 °C, washed three times with TBST buffer, chemiluminescent detection performed with the appropriate secondary antibodies and developed using Genemate Blue ultra-autoradiography film (VWR).

[5] = target: T3, ALK; assay: Screening and subcloning of hybridomas (ELISA, FCM, functional assays); type: binding; design: The human ALK extracellular domain (19-682 aa) fused to the mouse Fc gene; made in house; host or cells: 293T cells; conditions: after subcloning by limiting dilution
Protocol: HAT-selected fused cells were distributed in 96 well plates and the hybridoma supernatants were subjected to several rounds of screening. Initial screening was performed using ELISA against human Fc to test antigen binding with the ALK ECD-human Fc fusion protein. […] These were rescreened by FACS against Ba/F3 and neuroblastoma (NB) cells expressing ALK. From this screen, 22 positive hybridoma supernatants were tested in an antigen-binding capture ELISA assay and 11 were subsequently selected for further analysis. (A) Binding of hybridoma supernatants using an antigen-binding capture assay. The plate was coated with goat-anti-mouse IgG Fc, incubated with hybridoma supernatants, followed by ALK-HRP and visualized using an HRP substrate. (B) Binding of selected hybridoma supernatants to a human Fc antibody using ELISA screening. Plates were coated with the ALK ECD-human Fc fusion protein (ALK-hFc) together with an irrelevant hFc protein and visualized using an anti-mouse kappa light chain antibody. Only the supernatants with the highest binding are shown.
Supernatants from individual clones were then screened by ELISA and FACS analysis for ALK binding. Shown here is the viability of NGP neuroblastoma cells (expressing ALK) in the presence of anti-mouse IgG antibody in hybridoma clone supernatants. […]
Target sequence in this assay (Q9UM73 19-682): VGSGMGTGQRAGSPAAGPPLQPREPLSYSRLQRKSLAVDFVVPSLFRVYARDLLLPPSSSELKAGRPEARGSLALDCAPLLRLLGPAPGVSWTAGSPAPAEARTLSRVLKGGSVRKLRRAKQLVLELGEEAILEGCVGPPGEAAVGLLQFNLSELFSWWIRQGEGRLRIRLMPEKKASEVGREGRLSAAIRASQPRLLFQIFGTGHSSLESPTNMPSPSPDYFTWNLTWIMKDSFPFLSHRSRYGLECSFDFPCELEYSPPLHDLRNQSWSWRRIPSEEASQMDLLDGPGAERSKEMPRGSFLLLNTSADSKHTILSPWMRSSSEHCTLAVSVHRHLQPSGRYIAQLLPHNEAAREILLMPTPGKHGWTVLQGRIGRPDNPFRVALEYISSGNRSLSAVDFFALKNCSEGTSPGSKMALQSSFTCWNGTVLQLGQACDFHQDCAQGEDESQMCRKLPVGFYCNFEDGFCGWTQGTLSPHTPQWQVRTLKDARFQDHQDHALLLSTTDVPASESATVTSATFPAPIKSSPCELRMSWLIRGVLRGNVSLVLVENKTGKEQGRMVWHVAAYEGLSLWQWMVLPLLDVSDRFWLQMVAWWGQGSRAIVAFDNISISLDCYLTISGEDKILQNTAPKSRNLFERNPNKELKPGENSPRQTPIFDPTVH

[6] = target: MMP-9 (Homo sapiens, UniProt P14780); conditions: cited from earlier work
Sequence of MMP-9 (P14780 94-707): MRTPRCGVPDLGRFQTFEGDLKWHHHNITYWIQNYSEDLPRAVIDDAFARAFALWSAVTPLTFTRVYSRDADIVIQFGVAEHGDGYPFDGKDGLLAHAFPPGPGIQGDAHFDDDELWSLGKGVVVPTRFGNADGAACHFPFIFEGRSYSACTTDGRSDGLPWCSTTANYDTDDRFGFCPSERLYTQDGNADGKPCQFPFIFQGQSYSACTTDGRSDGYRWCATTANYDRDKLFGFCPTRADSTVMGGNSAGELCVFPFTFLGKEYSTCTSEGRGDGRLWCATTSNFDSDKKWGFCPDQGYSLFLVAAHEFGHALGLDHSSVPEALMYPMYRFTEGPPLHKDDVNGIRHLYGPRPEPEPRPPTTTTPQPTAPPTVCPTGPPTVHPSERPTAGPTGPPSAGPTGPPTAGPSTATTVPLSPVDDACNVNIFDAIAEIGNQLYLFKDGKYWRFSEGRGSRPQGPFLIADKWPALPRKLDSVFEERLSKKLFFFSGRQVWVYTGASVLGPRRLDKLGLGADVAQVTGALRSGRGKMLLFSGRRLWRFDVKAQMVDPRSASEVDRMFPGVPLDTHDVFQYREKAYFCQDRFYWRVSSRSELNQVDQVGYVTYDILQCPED

T2 sequence (Q9UM73 19-654): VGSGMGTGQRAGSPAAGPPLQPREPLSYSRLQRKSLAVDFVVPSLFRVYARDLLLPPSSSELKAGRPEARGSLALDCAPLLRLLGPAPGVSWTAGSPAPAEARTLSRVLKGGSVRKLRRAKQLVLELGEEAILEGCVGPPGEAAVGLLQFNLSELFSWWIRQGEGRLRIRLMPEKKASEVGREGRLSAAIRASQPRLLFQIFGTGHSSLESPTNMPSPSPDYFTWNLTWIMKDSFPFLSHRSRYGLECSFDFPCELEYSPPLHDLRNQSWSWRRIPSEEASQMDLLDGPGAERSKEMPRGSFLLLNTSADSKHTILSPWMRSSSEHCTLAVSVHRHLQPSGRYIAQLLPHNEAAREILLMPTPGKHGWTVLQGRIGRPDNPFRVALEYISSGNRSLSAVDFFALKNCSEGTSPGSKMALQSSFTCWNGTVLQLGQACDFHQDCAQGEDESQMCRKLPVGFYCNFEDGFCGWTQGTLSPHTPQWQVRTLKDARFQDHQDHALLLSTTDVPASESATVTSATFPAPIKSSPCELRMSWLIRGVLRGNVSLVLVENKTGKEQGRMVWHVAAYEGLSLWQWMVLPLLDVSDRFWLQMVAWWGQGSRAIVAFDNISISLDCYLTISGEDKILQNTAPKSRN
T1 sequence (Q9UM73 19-1620): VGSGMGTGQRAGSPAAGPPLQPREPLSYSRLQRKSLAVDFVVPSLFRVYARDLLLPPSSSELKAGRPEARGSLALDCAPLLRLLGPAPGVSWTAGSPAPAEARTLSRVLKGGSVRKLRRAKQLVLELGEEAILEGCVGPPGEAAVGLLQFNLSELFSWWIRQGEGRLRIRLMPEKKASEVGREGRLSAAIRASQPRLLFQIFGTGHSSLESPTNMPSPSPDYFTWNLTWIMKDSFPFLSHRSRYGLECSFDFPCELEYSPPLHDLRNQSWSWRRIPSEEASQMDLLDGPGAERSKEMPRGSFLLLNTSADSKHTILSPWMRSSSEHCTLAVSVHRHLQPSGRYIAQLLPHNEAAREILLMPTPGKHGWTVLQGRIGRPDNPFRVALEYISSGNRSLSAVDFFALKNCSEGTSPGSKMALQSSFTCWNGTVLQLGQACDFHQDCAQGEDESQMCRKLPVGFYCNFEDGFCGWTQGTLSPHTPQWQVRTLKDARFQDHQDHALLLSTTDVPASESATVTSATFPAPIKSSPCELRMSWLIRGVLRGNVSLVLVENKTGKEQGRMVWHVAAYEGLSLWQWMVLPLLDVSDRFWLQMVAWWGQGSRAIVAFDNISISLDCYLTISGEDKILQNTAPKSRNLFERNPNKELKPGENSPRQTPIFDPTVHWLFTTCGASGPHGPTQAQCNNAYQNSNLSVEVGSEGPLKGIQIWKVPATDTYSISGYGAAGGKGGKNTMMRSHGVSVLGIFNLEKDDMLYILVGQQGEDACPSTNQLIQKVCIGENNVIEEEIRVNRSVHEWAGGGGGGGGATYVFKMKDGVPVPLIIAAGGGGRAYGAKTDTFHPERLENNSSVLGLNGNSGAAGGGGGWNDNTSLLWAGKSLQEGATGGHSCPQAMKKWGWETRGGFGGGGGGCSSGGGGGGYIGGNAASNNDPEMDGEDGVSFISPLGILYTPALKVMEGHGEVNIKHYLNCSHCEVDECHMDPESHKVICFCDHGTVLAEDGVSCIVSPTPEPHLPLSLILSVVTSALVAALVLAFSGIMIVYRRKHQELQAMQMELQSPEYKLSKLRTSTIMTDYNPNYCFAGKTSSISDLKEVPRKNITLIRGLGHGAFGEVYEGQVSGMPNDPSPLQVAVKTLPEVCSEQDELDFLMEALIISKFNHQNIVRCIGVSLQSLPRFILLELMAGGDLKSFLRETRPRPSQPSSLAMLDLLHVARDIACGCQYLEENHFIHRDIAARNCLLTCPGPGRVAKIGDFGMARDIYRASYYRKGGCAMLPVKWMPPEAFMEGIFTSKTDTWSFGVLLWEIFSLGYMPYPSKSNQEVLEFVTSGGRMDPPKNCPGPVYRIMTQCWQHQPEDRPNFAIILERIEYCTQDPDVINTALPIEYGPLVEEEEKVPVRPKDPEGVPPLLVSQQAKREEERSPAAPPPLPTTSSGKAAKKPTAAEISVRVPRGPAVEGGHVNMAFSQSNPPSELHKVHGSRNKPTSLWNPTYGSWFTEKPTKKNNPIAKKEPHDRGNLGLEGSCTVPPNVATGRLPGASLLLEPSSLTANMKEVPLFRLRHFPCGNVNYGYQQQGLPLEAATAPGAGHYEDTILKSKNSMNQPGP

B1: 5H3: murine monoclonal IgG1 anti-ALK antibody; VH SEQ ID NO: 13, VL SEQ ID NO: 14 (antibody)
heavy: MEWSWVFLFLLSVIAGVQSQVQLQQSGAELVRPGASVTLSCKASGYTFTDYEMHWVKQTPVHGLEWIGAIDPETGGSAYNQKFKAKAILTADRSSSTAYMELRSLTSEDSAVYYCTRTRYYGSSPAMDYWGQGTSVTVSSAKTTPPSVYPLAPGSAAQTNSMVTLGCLVKGYFPEPVTVTWNSGSLSSGVHTFPAVLQSDLYTLSSSVTVPSS
light: MSSAQFLGLLLLCFQGTRCDIQMTQTTSSLSASLGDRVTISCSASQGIGNYLNWYQQKPDGTVKLLIYYTSSLHSGVPSRFSGSGSGTDYSLTISNLEPEDIATYYCQQYSKLPYTFGGGTKLEIKRADAAPTVSIFPPSSEQLTSGGASVVCFLNNFYPKDINVKWKIDGSERQNGVLNSWTDQDSKDSTYSMSSTLTLTK
recognition of ALK in immunoblotting assays [1]: recognize ALK in immunoblotting assays | immunoprecipitation of ALK [2]: can immunoprecipitate ALK | recognition of circulating ALK extracellular fragment in sera [3]: recognize the circulating ALK extracellular fragment in the sera of patients with ALK-expressing neuroblastoma | ALK protein recognized by western blotting in cell lysates ([4]; cell lysates of neuroblastoma cells expressing ALK): recognized a 220 kDa protein in the cell lysates of neuroblastoma cells | ALK protein recognized by western blotting in media ([4]; conditioned media of NB cells, shed ECD domain): an approximately 100 kDa protein in the media | ALK specificity of the clone's monoclonal antibody [5]: high ALK specificity

B2: andecaliximab: selective MMP-9 antibody (Gilead) (antibody, chains of the INN, looked up, V domains shown)
VH: QVQLQESGPGLVKPSETLSLTCTVSGFSLLSYGVHWVRQPPGKGLEWLGVIWTGGTTNYNSALMSRFTISKDDSKNTVYLKMNSLKTEDTAIYYCARYYYGMDYWGQGTLVTVSS
VL: DIQMTQSPSSLSASVGDRVTITCKASQDVRNTVAWYQQKPGKAPKLLIYSSSYRNTGVPDRFSGSGSGTDFTLTISSLQAEDVAVYYCQQHYITPYTFGGGTKVEIK
clinical activity ([6]; combined with standard chemotherapy, gastric and gastroesophageal junction adenocarcinoma): showed activity when combined with standard chemotherapy | target engagement and dose-limiting toxicity ([6]; patients with gastric and gastroesophageal junction adenocarcinoma): achieved target engagement without dose-limiting toxicity
